Measured values as given in publication PMC9864931 (Vaccines, 2022).

Target: E. coli-produced Wuhan-Hu1 RBD (receptor binding domain of the SARS-CoV-2 spike protein, a.a. 319-542) (SARS-CoV-2 (Wuhan-Hu1), UniProt P0DTC2)
Assay: ELISA
Conditions: both partners purified

B1: mAb WRAIR-2057 (antibody, V domains shown)
VH: EVQLVQSGAEVKKPGESLKISCKGSGYSFISYWIAWVRQMPGKGLEWMGIIYPGDSDTTYSPSFQGQVTISADKSISTAYLQWSSLKASDTAIYYCARLLYYSDSSPLDSWGQGTLVTVSS
VL: DIQMTQSPSSLSASVGDRVTITCRASQSISTYLNWYQQKPGKAPNLLIYAASSLQSGVPSRFSGSGSGTDFTLTISSLQPEDFATYYCQQSHSTPRTFGPGTKVDIK
- binding result: binds
